Article PMC9714913

Target: AMC009 SOSIP gp120-gp41 protomer (HIV-1 (clade B, donor H18877))
Assay: cryo-EM structure; AMC009 SOSIPv5.2 trimer with 10-fold molar excess of ACS114 Fab for 12 hours at RT, then 6-fold molar excess of ACS122 Fab for 15 minutes; complex purified by SEC in TBS; ~4.0 Å

## AMC009 SOSIP gp120-gp41 protomer (complex)
  stoichiometry N: 3
